Results from doi:10.1101/2025.09.09.675108 (bioRxiv, 2025).
Blank lines part the entries; values can stand above or below the molecule they belong to. Non-standard residues stand in square brackets, D forms with d. *: point of attachment. FITC = O=C1OC2(c3ccc(O)cc3Oc3cc(O)ccc32)c2ccc(NC(=S)*)cc21; pT = C[C@@H](OP(=O)(O)O)[C@H](N)C(=O)O

Columns and labels:
Assay in all cases: fluorescence polarisation
[1] = molecular target: DDIAS pS676 peptide (FITC-SYDAp…-NH2)
[2] = molecular target: DDIAS pS993 peptide (FITC-ETRSAWpSPELFS-NH2)
[3] = molecular target: recombinant TOPBP1 BRCT7/8 domain (amino acids 1264-1493), WT (UniProt Q92547 1264-1493)
Chain of recombinant TOPBP1 BRCT7/8 domain (amino acids 1264-1493), WT (Q92547 1264-1493): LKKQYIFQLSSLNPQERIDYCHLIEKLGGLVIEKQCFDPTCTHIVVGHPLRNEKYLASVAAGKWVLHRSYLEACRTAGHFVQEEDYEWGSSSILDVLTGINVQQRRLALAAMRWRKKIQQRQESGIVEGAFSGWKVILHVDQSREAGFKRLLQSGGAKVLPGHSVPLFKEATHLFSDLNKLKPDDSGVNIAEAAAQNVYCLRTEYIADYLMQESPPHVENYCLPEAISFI

Kd [1]: 300 nM
Kd [2]: 1200 nM
Molecule: recombinant TOPBP1 BRCT7/8 domain (amino acids 1264-1493), WT (from UniProt Q92547 1264-1493) (domain or fragment)

Kd [3]: 200 nM
B1: pBRIP1 peptide (FITC-ESIYFpTPELYDPEDT-NH2) (peptide)
peptide: {FITC}-ESIYF[pT]PELYDPEDT-NH2
